Consider one substance from paper PMC11320999, “APH(3’)-Ie, an aminoglycoside-modifying enzyme discovered in a rabbit-derived Citrobacter gillenii isolate” (Frontiers in Cellular and Infection Microbiology, 2024).

In general, Km refers to the substrate concentration at which the rate is half of its maximum. The kcat is the maximal rate divided by the concentration of active sites. For orientation: kcat/Km means the second-order rate constant that governs catalysis at low substrate concentration.

What all share (assay): purified protein
Type in all cases: biochemical, Citrobacter gillenii
What all share (details): 1 mM ATP, 1 mM MgCl2, 2 mM KCl, 100 mM HEPES pH 7.0, 25 °C

In series [1] the test system is NC[C@H]1O[C@H](O[C@H]2[C@H](O[C@@H]3O[C@H](CO)[C@@H](O)[C@H]3O)[C@@H](O)[C@H](N)C[C@@H]2N)[C@H](N)[C@@H](O)[C@@H]1O.
For series [2], the system named is NC[C@@H]1O[C@H](O[C@H]2[C@@H](O)[C@H](O[C@@H]3[C@@H](O)[C@H](N)C[C@H](N)[C@H]3O[C@H]3O[C@H](CO)[C@@H](O)[C@H](O)[C@H]3N)O[C@@H]2CO)[C@H](N)[C@@H](O)[C@@H]1O.
The subject of series [3] is NC[C@H]1O[C@H](O[C@H]2[C@H](O)[C@@H](O[C@H]3O[C@H](CO)[C@@H](O)[C@H](N)[C@H]3O)[C@H](N)C[C@@H]2N)[C@H](O)[C@@H](O)[C@@H]1O.

For the substance APH(3’)-Ie (Citrobacter gillenii), the Km in series [1] turned out to be 4.22 ± 0.88 µM; in series [2], 7.74 ± 1.44 µM; in series [3], 20.99 ± 1.84 µM. Further, the catalytic constant (kcat) in series [1] worked out at 1.31 ± 0.09 s⁻¹; in series [2] it was 0.86 ± 0.01 s⁻¹; in series [3] it was 1.06 ± 0.05 s⁻¹. In addition, the kcat/Km in series [1] is 323000 ± 81000 M⁻¹ s⁻¹; in series [2], 114000 ± 28000 M⁻¹ s⁻¹; in series [3], 50800 ± 4400 M⁻¹ s⁻¹.
